# Source: patent US7410639 (VEGENICS, dated 2008)
# B1: VEGFDΔNΔC (ligand)
# chain: FYDIETLKVIDEEWQRTQCSPRETCVEVASELGKSTNTFFKPPCVNVFRCGGCCNEESLICMNTSTSYISKQLFEISVPLTSVPELVPVKVANHTGCKCLPTAPRHPYS
# notes: also called internal VEGF-D polypeptide; fraction #3; not shown: FLAG octapeptide at the N-terminus
# Biological target: T1, VEGFR2-EpoR chimeric receptor (mouse VEGFR2 extracellular domain with mouse EpoR transmembrane and … (mouse, UniProt P35918 20-762; P14753 250-507, limits assumed)
# T1 construct: extracellular domain;domain: transmembrane and cytoplasmic domains; Expressed on the surface of Ba/F3 cells (line Ba/F3-NYK-EpoR); also called VEGF receptor-2; Flk-1
# T1 sequence (P35918 other isoform, or with tags, fused parts or gaps mutant limits assumed): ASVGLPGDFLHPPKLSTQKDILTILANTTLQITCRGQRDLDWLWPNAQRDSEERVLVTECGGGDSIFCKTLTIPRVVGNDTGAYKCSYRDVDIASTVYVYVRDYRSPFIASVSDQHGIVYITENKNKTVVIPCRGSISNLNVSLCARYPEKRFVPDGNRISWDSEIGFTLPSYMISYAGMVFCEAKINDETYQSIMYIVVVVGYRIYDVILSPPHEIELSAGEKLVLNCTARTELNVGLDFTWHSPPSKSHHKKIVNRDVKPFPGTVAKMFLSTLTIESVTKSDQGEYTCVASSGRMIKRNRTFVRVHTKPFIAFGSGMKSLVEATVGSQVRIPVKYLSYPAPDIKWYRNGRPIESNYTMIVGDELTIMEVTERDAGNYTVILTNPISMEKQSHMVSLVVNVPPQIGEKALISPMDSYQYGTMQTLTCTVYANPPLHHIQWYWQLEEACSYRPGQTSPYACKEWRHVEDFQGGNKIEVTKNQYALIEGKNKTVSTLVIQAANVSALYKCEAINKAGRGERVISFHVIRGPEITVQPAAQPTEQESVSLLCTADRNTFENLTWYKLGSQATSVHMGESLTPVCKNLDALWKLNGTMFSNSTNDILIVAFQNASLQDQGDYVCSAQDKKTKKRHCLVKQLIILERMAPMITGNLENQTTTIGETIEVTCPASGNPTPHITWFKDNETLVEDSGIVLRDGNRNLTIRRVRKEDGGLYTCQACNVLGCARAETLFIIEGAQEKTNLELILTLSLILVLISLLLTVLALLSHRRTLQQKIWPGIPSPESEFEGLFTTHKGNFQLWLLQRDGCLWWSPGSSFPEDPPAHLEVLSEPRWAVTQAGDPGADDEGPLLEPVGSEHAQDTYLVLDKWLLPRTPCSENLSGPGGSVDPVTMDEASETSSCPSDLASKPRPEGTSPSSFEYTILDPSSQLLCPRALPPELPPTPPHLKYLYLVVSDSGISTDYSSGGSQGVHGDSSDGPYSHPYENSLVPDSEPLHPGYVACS
# Assay: Ba/F3 VEGFR2-EpoR bioassay (binding inferred from proliferation)
# Experimental: Recombinant VEGFDΔNΔC, and material purified by M2 affinity chromatography, was assessed using the VEGFR2 bioassay. Bioassay cells (10^4), washed to remove IL-3, were incubated with aliquots of conditioned medium from VEGF-D transfected COS cells, fraction #1 from the affinity column (void volume), or fraction #3 from the affinity column (containing VEGFDΔNΔC). All samples were tested at an initial concentration of 20% (i.e., ⅕) followed by doubling dilutions. Cells were allowed to incubate for 48 hours at 37° C. in a humidified atmosphere of 10% CO_2. Cell proliferation was quantitated by the addition of 1 μCi of ^3H-thymidine and counting the amount incorporated over a period of 4 hours.
# The bioassay for the capacity of polypeptides to bind to VEGF receptor-2 is described in detail in Example 7. Aliquots of fractions eluted from the M2 affinity column, containing the VEGFDΔNΔC protein, were diluted in medium and tested in the VEGFR2 bioassay as previously described.
binder,measurement,value
B1,binding result,binds
